Test [1] has as its target HLA-B*3501 (human).
Test [2] has as its target HLA-B*3501 (human). This is another data set of the same source.
The target of test [3] is HLA-B*3501 (human). The source holds these as a separate data set.

With EVDPIGHVY (synthetic peptide) [MAGE-A6 peptide 168-176 EVDPIGHVY], the “RA (relative affinity)” value in test [1] came out at 1.1. Also, the “Stability (half-life of the peptide on HLA-B*35)” value (“Stability” for short) in test [2] was 6 h.

B1: NY-ESO-1 peptide 94-102 MPFATPMEA (peptide)
peptide: MPFATPMEA
notes: synthetic peptide; also called nonamer 94-102
Take B1: the “RA (relative affinity)” value in test [1] was determined as 0.4. Further, in test [2], the “Stability” value was > 6 h.

With EAAGIGILY (synthetic modified peptide) [modified Melan-A peptide 26-34 EAAGIGILY], the “RA (relative affinity)” value in test [1] is 1.32. Also, the “Stability” value in test [2] was > 6 h.

Consider EPAGIGILY (synthetic modified peptide) [modified Melan-A peptide 26-34 EPAGIGILY], for which the “RA (relative affinity)” value in test [1] was 0.4. Also, the “Stability” value in test [2] was > 6 h.

B2: NY-ESO-1 peptide 92-103 LAMPFATPMEAE (peptide)
peptide: LAMPFATPMEAE
notes: synthetic peptide; also called 12-mer 92-103
With B2, the “Stability” value in test [2] was > 6 h.

B3: tyrosinase peptide 309-321 TPRLPSSADVEFC (peptide)
peptide: TPRLPSSADVEFC
notes: synthetic peptide; also called 13-mer 309-321
Consider B3, for which the “RA (relative affinity)” value in test [1] stood at 16.7. Moreover, the “Stability” value in test [2] is < 0.5 h.

B4: tyrosinase peptide 309-320 TPRLPSSADVEF (peptide)
peptide: TPRLPSSADVEF
notes: synthetic peptide; also called 12-mer 309-320
In the case of B4, in test [1], the “RA (relative affinity)” value came to 1.3. Besides, the “Stability” value in test [2] was > 6 h.

Consider QVPLDCVLYR (synthetic peptide, 70% purity) [gp100 peptide 470-479 QVPLDCVLYR], for which the binding result in test [3] is recorded as “no binding”.

Regarding VPLDCVLYRY (synthetic peptide) [gp100 peptide 471-480 VPLDCVLYRY], the “RA (relative affinity)” value in test [1] amounted to 2.6. In addition, the “Stability” value in test [2] is > 6 h.

B5: NY-ESO-1 peptide 94-103 MPFATPMEAE (peptide)
peptide: MPFATPMEAE
notes: synthetic peptide; also called decamer 94-103
Consider B5, for which, in test [2], the “Stability” value was > 6 h.

B6: NY-ESO-1 peptide 92-104 LAMPFATPMEAEL (peptide)
peptide: LAMPFATPMEAEL
notes: synthetic peptide; also called 13-mer 92-104
B6: the “RA (relative affinity)” value in test [1] stood at 0.58. Also, the “Stability” value in test [2] is > 6 h.

With LPSSADVEF (synthetic peptide) [tyrosinase peptide 312-320 LPSSADVEF], the “RA (relative affinity)” value in test [1] was 1.25. Also, the “Stability” value in test [2] amounted to 6 h.

VPLDCVLYR (synthetic peptide) [gp100 peptide 471-479 VPLDCVLYR]: the “RA (relative affinity)” value in test [1] was found to be 20. Also, the “Stability” value in test [2] was < 0.5 h.

B7: tyrosinase peptide 309-322 TPRLPSSADVEFCL (peptide)
peptide: TPRLPSSADVEFCL
notes: synthetic peptide; also called 14-mer 309-322
For the molecule B7, in test [1], the “RA (relative affinity)” value is > 20. Further, the “Stability” value in test [2] is > 6 h.

B8: NY-ESO-1 peptide 94-104 MPFATPMEAEL (peptide)
peptide: MPFATPMEAEL
notes: synthetic peptide; also called 11-mer 94-104
Take B8: the “RA (relative affinity)” value in test [1] stood at 1.32. Also, the “Stability” value in test [2] was > 6 h.

The values above are taken from patent US20060122119A1 (INSTITUT NAT L DE LA SANTE ET DE LA RECHERCHE MED, published 2006).
